# Assays:
# [1] = molecular target: HEV methyltransferase fused to the GAL4 binding domain (UniProt P33424); experiment: yeast two-hybrid quantitative α-galactosidase assay; conditions: triplicate samples, parent: est. 8.7, read off a plot
# [2] = molecular target: HEV ORF3 protein fused to the GAL4 binding domain; experiment: as above; conditions: triplicate samples, parent: est. 11, read off a plot
# [3] = molecular target: GST fused X-domain (Hepatitis E virus) (UniProt P33424); experiment: pull-down; ~500 fmol ORF3-His or ~500 fmol Met-His alone with 500 fmol GST-X; bound fraction against input by band intensity
# [4] = molecular target: GST fused X-domain (Hepatitis E virus) (UniProt P33424); experiment: pull-down; competition: ORF3-His and Met-His together with 500 fmol GST-X, equimolar (~500 fmol) or with 1 and 2 pmol of one of them
substance,measurement,setting,value
HEV X-domain (macro domain) fused to the GAL4 activation domain (from UniProt P33424) R93E,response (normalized α-gal units),[1]; P=0.51 vs wild type X,7.6
same,response (normalized α-gal units),[2]; P=0.077 vs wild type X,13
HEV X-domain (macro domain) fused to the GAL4 activation domain (from UniProt P33424) L94R,response (normalized α-gal units),[1]; P=0.82 vs wild type X,8.3
same,response (normalized α-gal units),[2]; P=0.056 vs wild type X,13
His-tagged ORF3 (pRSET ORF3) (from UniProt O90299 1-114) (natural protein),percent of input pulled down,[3],25%
same,percent of input in the bound fraction with equimolar Met-His present,[4],10%
HEV X-domain (macro domain) fused to the GAL4 activation domain (from UniProt P33424) R93E; L101E; L102E,response (normalized α-gal units),[1],1.6
same,response (normalized α-gal units),[2],2.9
HEV X-domain (macro domain) fused to the GAL4 activation domain (from UniProt P33424) L101E; L102E,response (normalized α-gal units),[1],1.9
same,response (normalized α-gal units),[2],3.2
HEV X-domain (macro domain) fused to the GAL4 activation domain (from UniProt P33424) I66E; I67E,response (normalized α-gal units),[2]; P=0.002 vs wild type X,6.2
